Test [1] addresses MBD-ank (Table II; ankB or ankG not said) membrane-binding domain. As to the kind of experiment: SPR, GST-Nav1.2 captured on chip. The following applies: reference: wild type, CK2-treated; sites S1124,S1126. Background: SPR reads the build-up and loss of mass on a sensor chip optically.
For test [2], the target named is ankyrin G (MBD-ankG) membrane-binding domain, 1–981 (UniProt O70511). As to the kind of experiment: SPR, GST-Nav1.2 captured on chip. To be noted: reference: untreated immobilized fragment; sites S1112,S1123,S1124,S1126.
Test [3] has as its target ankyrin B (MBD-ankB) membrane-binding domain, 1–957 (UniProt Q01484). As to the kind of experiment: SPR, GST-Nav1.2 captured on chip. The following applies: reference: untreated immobilized fragment; sites S1112,S1123,S1124,S1126.
The target of test [4] is T1, MBD-ankB (membrane-binding domain of human 220-kD ankyrin B, amino acids 1–957) (human, UniProt Q01484-2 1-957).
T1 sequence (looked up): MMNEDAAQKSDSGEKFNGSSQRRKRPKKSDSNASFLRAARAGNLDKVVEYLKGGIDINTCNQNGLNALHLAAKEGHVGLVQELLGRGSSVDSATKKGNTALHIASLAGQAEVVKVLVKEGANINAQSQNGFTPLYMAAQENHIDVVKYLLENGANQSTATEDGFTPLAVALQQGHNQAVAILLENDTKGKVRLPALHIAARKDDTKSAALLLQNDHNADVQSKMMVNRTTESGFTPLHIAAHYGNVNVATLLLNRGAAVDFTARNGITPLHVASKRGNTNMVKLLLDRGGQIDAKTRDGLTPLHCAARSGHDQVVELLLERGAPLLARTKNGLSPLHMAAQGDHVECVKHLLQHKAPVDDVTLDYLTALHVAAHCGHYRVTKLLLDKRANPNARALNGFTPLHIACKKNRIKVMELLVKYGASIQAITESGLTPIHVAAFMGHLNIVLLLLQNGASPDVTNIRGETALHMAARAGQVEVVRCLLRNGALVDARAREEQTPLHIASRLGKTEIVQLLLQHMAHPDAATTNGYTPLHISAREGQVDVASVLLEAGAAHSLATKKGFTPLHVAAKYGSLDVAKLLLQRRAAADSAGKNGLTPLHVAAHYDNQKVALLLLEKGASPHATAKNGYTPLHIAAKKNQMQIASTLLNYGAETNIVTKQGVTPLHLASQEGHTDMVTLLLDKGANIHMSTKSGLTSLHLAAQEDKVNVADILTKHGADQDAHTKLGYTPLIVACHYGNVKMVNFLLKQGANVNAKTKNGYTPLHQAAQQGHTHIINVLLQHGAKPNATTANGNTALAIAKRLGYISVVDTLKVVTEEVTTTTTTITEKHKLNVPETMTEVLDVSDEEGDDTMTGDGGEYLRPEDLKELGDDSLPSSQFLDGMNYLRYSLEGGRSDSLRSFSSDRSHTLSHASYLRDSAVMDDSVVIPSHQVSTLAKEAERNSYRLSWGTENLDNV
As to the kind of experiment: SPR.

Test [5] concerns the target T2, MBD-ankG (membrane-binding domain of rat 270-kD ankyrin G, amino acids 1–981) (rat, UniProt O70511 1-981).
T2 sequence (looked up): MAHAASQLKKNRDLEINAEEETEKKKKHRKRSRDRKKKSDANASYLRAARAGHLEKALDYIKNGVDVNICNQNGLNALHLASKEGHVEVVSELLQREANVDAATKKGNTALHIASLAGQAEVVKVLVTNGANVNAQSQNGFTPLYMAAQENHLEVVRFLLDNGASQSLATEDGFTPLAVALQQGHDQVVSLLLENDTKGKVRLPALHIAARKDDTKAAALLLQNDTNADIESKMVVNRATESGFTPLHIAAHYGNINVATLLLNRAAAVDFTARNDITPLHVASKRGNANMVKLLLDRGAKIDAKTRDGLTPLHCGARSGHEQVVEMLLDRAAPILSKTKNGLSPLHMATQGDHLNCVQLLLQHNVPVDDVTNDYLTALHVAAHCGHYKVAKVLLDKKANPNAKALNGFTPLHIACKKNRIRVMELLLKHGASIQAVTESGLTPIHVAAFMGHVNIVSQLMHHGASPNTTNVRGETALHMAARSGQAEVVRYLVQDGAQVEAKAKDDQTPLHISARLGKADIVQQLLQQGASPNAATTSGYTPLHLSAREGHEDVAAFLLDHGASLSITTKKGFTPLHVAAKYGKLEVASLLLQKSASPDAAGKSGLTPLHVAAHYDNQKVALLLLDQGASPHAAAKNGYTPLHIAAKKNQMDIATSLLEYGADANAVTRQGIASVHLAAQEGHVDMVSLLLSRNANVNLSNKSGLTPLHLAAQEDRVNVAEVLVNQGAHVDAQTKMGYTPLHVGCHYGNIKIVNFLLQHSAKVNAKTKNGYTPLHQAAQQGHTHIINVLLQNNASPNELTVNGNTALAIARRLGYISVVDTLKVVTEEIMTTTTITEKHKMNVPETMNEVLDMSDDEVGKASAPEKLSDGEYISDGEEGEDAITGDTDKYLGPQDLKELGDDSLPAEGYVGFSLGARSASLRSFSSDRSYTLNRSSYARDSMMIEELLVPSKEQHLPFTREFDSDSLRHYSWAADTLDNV
The test can be described thus: SPR.

As a reminder, the Kd is a measure of binding affinity in units of concentration. A higher Kd goes with weaker binding.

As to “Nav1.2 1,080–1,203 (from UniProt P04775) S1124-26A, CK2-treated”, the KD entry in test [1] is on record as “weaker; reference 1.2 10−9”.
“Nav1.2 1,080–1,203 (from UniProt P04775) phosphorylated on chip with CK2”: the KD result in test [2] is recorded as “stronger; reference 1.7 ± 0.5 × 10−6”; in test [3] it was “stronger; reference 1.2 ± 0.4 × 10−6”.
On to “Nav1.2 989–1,133 (from UniProt P04775) phosphorylated on chip with CK2”, for which the KD result in test [3] is on record as “stronger; reference 1.3 ± 0.2 × 10−6”.

B1: GST-Nav1.2 1,080–1,203 (domain or fragment, UniProt P04775 1080-1203, looked up)
chain: SSVEKYVVDESDYMSFINNPSLTVTVPIALGESDFENLNTEEFSSESDMEESKEKLNATSSSEGSTVDIGAPAEGEQPEAEPEESLEPEACFTEDCVRKFKCCQISIEEGKGKLWWNLRKTCYK
For B1, the dissociation constant Kd in test [4] stood at 1200 nM; in test [5], 1700 nM.

B2: GST-Nav1.2 989–1,133 (domain or fragment, UniProt P04775 989-1133, looked up)
chain: DNLAATDDDNEMNNLQIAVGRMQKGIDFVKRKIREFIQKAFVRKQKALDEIKPLEDLNNKKDSCISNHTTIEIGKDLNYLKDGNGTTSGIGSSVEKYVVDESDYMSFINNPSLTVTVPIALGESDFENLNTEEFSSESDMEESKE
For the molecule B2, in test [4], the Kd was 1300 nM.

The values above are taken from publication PMC2600743 (The Journal of Cell Biology, 2008).
